From the supplement of paper PMC9732359
± gives the uncertainty stated by the source.

Assay: protein stability index of a GFP-peptide fusion (yeast GPS) (PSI 1-4); higher = more stable; sorted into four equal gates, so the index is relative within each strain
Summary of the method: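 Peptides tiling yeast proteins in 17-residue segments were fused downstream of GFP, with Cherry expressed from the same plasmid. As a pooled library in yeast, mid-log cultures grown in leucine-free medium were sorted into four equal gates by GFP/Cherry fluorescence ratio. Gate plasmids were PCR-amplified and Illumina-sequenced, and barcodes linked reads to strains. Each peptide received a protein stability index equal to the sum of each gate's read frequency times its gate number.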

Row | Sequence | protein stability index (doa10∆) | protein stability index (pdr5∆) | protein stability index (san1∆) | protein stability index (ubr1∆)
1 | LKTVIILSSLYLLSIWV [CYT1] | 2.12 ± 0.11 | 1.45 ± 0.092 | 1.24 ± 0.15 | 1.17 ± 0.056
2 | LKVLSEHLDCMNFISKE [PCI8] | 2.72 ± 0.09 | 3.14 ± 0.099 | 3.2 ± 0.047 | 3.03 ± 0.061
3 | LKWVAVVPDLGHLNGHT [SSN2] | 3.12 ± 0.07 | 3.13 ± 0.058 | 3.1 ± 0.048 | 3.16 ± 0.054
4 | LKYLDDLKAQFQELDSK [RPN9] | 3.13 ± 0.097 | 3.23 ± 0.069 | 3.12 ± 0.075 | 3.2 ± 0.064
5 | LLDNEIRIFRSELQRLS [RPT5] | 2.4 ± 0.26 | – | 3.09 ± 0.076 | 3.03 ± 0.21
6 | LLDTNSLEENAMSTVTL [SKI6] | 3.11 ± 0.086 | 3.04 ± 0.066 | 3.04 ± 0.083 | 2.89 ± 0.061
7 | LLEETQAKLKKNVETLE [SMC4] | 3.39 ± 0.092 | 3.18 ± 0.085 | 3.31 ± 0.08 | 3.51 ± 0.071
8 | LLEFFELVFSKGVYLIL [YML103C/NUP188] | 2.13 ± 0.087 | 2.4 ± 0.093 | 1.97 ± 0.093 | 2.26 ± 0.076
9 | LLERYIGNLITRQFEGR [PRP8] | 2.59 ± 0.11 | 2.63 ± 0.18 | 2.43 ± 0.15 | 1.99 ± 0.071
10 | LLFNNDFPLLKVLAAHT [RRP40] | 1.23 ± 0.13 | 1.25 ± 0.11 | 1.18 ± 0.12 | 1.09 ± 0.058
11 | LLGKESFKKIIKFLLTF [YCS4] | 1.45 ± 0.063 | 1.57 ± 0.11 | 1.18 ± 0.16 | 1.65 ± 0.06
12 | LLICIGTSLKVAPVSEI [SIR2] | 1.91 ± 0.11 | 2.01 ± 0.077 | 2.29 ± 0.18 | 1.79 ± 0.05
13 | LLIRKLPFQRLVREIAQ [HHT1] | 1.29 ± 0.085 | 1.48 ± 0.094 | 1.44 ± 0.16 | 1.73 ± 0.097
14 | LLISLNILFSLWKLLST [YLR018C/POM34] | 1.63 ± 0.071 | 1.25 ± 0.077 | 1.22 ± 0.21 | 1.18 ± 0.067
15 | LLKEKPNALKPLSESLR [RRP6] | 2.71 ± 0.059 | 2.83 ± 0.065 | 2.91 ± 0.077 | 2.94 ± 0.044
16 | LLKELSKNAQFICTTFR [SMC3] | 2.45 ± 0.063 | 2.01 ± 0.052 | 1.84 ± 0.1 | 1.94 ± 0.048
17 | LLKKATKPEVASDMSDE [CDC53] | 2.67 ± 0.11 | 2.61 ± 0.14 | 2.84 ± 0.086 | 2.89 ± 0.11
18 | LLKKKDDPSKVRLLCRS [YLR335W/NUP2] | 2.12 ± 0.047 | 1.85 ± 0.063 | 1.98 ± 0.089 | 2.61 ± 0.15
19 | LLLKLASPHASVRTAVF [ECM29] | 1.88 ± 0.048 | 1.87 ± 0.043 | 1.57 ± 0.063 | 1.49 ± 0.029
20 | LLLLSLFKKITNVNPSK [YML103C/NUP188] | 1.89 ± 0.03 | 1.9 ± 0.027 | 2.24 ± 0.038 | 1.93 ± 0.027
21 | LLNILSGLPTCDYYNTF [RPN2] | 2.44 ± 0.1 | 2.73 ± 0.13 | 2.03 ± 0.16 | 2.3 ± 0.095
22 | LLNINGSRKVAGILRGY [SMX2] | 2.64 ± 0.14 | 1.67 ± 0.12 | 2.25 ± 0.14 | 1.52 ± 0.14
23 | LLPPIKIELIKNNLLIP [RPN12] | 2.16 ± 0.071 | 2.24 ± 0.062 | 1.75 ± 0.11 | 2.09 ± 0.044
24 | LLREFKKLDDKPSLVDV [RPN6] | – | 3.44 ± 0.25 | 3.27 ± 0.26 | –
25 | LLREKQRVRNMRELGLI [YOR098C/NUP1] | 1.19 ± 0.19 | 1.14 ± 0.13 | – | 1.13 ± 0.19
26 | LLRNLESKMRQQEAKYR [YDL088C/ASM4] | 1.22 ± 0.058 | 1.61 ± 0.072 | 1.39 ± 0.14 | 1.36 ± 0.059
27 | LLSDVNQNQRNVNETMS [SMC3] | 3.06 ± 0.12 | 2.89 ± 0.054 | 3.04 ± 0.062 | 3.01 ± 0.082

Row | Sequence | protein stability index (doa10∆) | protein stability index (pdr5∆) | protein stability index (san1∆) | protein stability index (ubr1∆)
28 | LLSEHDDHNGEVWSVSW [YGL100W/SEH1] | 2.62 ± 0.068 | 2.8 ± 0.069 | 2.36 ± 0.079 | 2.66 ± 0.1
29 | LLSIPISCPLIGVIQLA [FAS1] | 1.23 ± 0.07 | 1.27 ± 0.068 | 1.23 ± 0.12 | 1.08 ± 0.064
30 | LLSKLLLKHPFKAIHGS [YCS4] | 2.37 ± 0.051 | 2.09 ± 0.05 | 1.67 ± 0.059 | 2.44 ± 0.035
31 | LLSLISTTAALQSISSL [RPN7] | 1.94 ± 0.053 | 1.95 ± 0.05 | 1.77 ± 0.075 | 2.24 ± 0.049
32 | LLSQFGIKVLPETCLFV [YML103C/NUP188] | 2.1 ± 0.075 | 1.55 ± 0.058 | 1.18 ± 0.14 | 1.33 ± 0.059
33 | LLTNSNNGSSNNNTQNT [SNF5] | 2.99 ± 0.082 | 3.25 ± 0.084 | 3.17 ± 0.069 | 3.18 ± 0.055
34 | LLVERLKEDDSSLYEAS [RPN1] | 3.22 ± 0.12 | 3.38 ± 0.12 | 3.06 ± 0.1 | 3.16 ± 0.18
35 | LLVLLQDVIKVLYQSNA [SWP82] | 1.84 ± 0.074 | 2.03 ± 0.084 | 1.72 ± 0.12 | 1.7 ± 0.054
36 | LLVQKRFKYAPGTIVLY [RPS3] | 2.51 ± 0.12 | 1.87 ± 0.073 | 1.72 ± 0.13 | 1.31 ± 0.039
37 | LMLKKLKNSIMSFIFPS [YML031W/NDC1] | 2.21 ± 0.058 | 2.3 ± 0.066 | 2.28 ± 0.073 | 2.37 ± 0.062
38 | LMTKLNSFKLFKAEKLQ [RPC17] | 1.97 ± 0.059 | 1.88 ± 0.054 | 1.92 ± 0.06 | 1.75 ± 0.04
39 | LNAINNAEKTGKRQVLI [RPS22A] | – | 2.3 ± 0.26 | – | –
40 | LNARMFLKYYGAHKFLD [SIR2] | 1.89 ± 0.092 | 1.68 ± 0.097 | 1.21 ± 0.12 | 1.69 ± 0.066
41 | LNATTAMDLAQMLIQGV [BRR2] | 3.08 ± 0.18 | 1.68 ± 0.11 | 2.58 ± 0.094 | 1.55 ± 0.083
42 | LNDHIDDFEVNVASLVR [GRR1] | 3.29 ± 0.087 | 3.26 ± 0.13 | 2.31 ± 0.25 | 3.08 ± 0.087
43 | LNEAQGHIVSLELTTGA [SMD3] | 1.47 ± 0.053 | 1.9 ± 0.059 | 1.59 ± 0.14 | 1.85 ± 0.072
44 | LNEITNSKVNKLNIETM [DSN1] | 2.81 ± 0.16 | 2.9 ± 0.097 | 2.54 ± 0.077 | 3.08 ± 0.051
45 | LNGGLQFVPELKEFTAK [FAS2] | 2.75 ± 0.11 | 2.72 ± 0.11 | 2.3 ± 0.092 | 1.83 ± 0.064
46 | LNHVVSLIENKKAKLVL [RPL8B] | 2.46 ± 0.088 | 3.54 ± 0.17 | 2.98 ± 0.1 | 2.83 ± 0.1
47 | LNICRQCFREKANDIGF [RPS29A] | 2.8 ± 0.094 | 2.97 ± 0.12 | 3.07 ± 0.1 | 2.86 ± 0.11
48 | LNIDWSTTGDNGELDLS [MED2] | 2.2 ± 0.057 | 2.48 ± 0.058 | 2.13 ± 0.079 | 2.28 ± 0.044
49 | LNISGEFFRNKLKYHDF [RPL16A] | 1.32 ± 0.13 | – | – | 1.12 ± 0.1
50 | LNKDSTNEFVGSPSLTS [NUT1] | 2.96 ± 0.062 | 3.18 ± 0.057 | 2.93 ± 0.044 | 2.9 ± 0.042
51 | LNKFKKAIFQFVCRGMA [ECM29] | 2.06 ± 0.1 | 2.08 ± 0.071 | 2.6 ± 0.11 | 1.92 ± 0.052
52 | LNKSDLLDKYGKTGLSN [YML103C/NUP188] | 3.38 ± 0.12 | 3.17 ± 0.13 | 3.44 ± 0.058 | 3.38 ± 0.075
53 | LNNNNNNNNTTTTTTTT [SWI1] | 3.06 ± 0.062 | 3.27 ± 0.062 | 3.33 ± 0.081 | 3.22 ± 0.054
